Reference: publication PMC9489729 (2022)

Experiments:
[1] = molecular target: T1, C-terminally His-tagged RavA (E. coli, UniProt P31473 1-498); experiment: BLI; + ATP, KD1 (2:1 heterogeneous ligand model), pH 7.5
[2] = molecular target: T1, C-terminally His-tagged RavA; experiment: BLI; + ATP, KD2 second site (2:1 heterogeneous ligand model), pH 7.5
[3] = molecular target: T1, C-terminally His-tagged RavA; experiment: BLI; no nucleotide, pH 7.5
[4] = molecular target: T1, C-terminally His-tagged RavA; experiment: BLI; + ADP, pH 7.5

T1 sequence (P31473 whole entry): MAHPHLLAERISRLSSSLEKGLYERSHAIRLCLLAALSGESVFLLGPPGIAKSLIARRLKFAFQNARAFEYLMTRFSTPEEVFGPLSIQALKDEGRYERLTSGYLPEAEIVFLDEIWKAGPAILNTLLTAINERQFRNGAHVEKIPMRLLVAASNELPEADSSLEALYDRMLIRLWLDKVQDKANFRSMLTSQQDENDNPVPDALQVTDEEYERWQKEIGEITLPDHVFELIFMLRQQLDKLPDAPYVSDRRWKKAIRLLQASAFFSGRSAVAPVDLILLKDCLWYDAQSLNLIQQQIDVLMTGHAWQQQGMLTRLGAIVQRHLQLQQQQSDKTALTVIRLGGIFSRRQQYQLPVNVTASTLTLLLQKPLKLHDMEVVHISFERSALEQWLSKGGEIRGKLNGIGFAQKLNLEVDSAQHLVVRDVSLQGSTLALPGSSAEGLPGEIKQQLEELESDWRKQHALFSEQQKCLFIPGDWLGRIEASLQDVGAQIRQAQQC

B1: His-NTV-AviTag (domain or fragment)
chain: MLTLDTLNVMLAVSEEGLIEEMIIALLASPQLAVFFEKFPRLKAAITDDVPRWREALRSRLKDARVPPELTEEVMCYQQSQLLSTPQFIVQLPQILDLLHRLNSPWAEQARQLVDANSTITSALHTLFLQRWRLSLIVQATTLNQQLLEEEREQLLSEVQERMTLSGQLEPILADNNTAAGRLWDMSAGQLKRGDYQLIVKYGEFLNEQPELKRLAEQLGRSREAKSIPRNDAQMETFRTMVREPATVPEQVDGLQQSDDILRLLPPELATLGITELEYEFYRRLVEKQLLTYRLHGESWREKVIERPVVHKDYDEQPR
modifications: biotinylated for the BLI binding studies (50 μM D-biotin added to the LB medium during expression)
Kd [1]: 13.1 µM | Kd [2]: 4.8 µM | Kd [3]: 33.3 µM | Kd [4]: 12.4 µM
